Assay results from the DeepSol protein solubility set.

Test: soluble on expression in E. coli; label from the status in PepcDB or PDB records

Sequence | soluble on expression in E. coli
MSSSANSIKVVARFRPQNRVEIESGGQPIVTFQGPDTCTVDSKEAQGSFTFDRVFDMSCKQSDIFDFSIKPTVDDILNGYNGTVFAYGQTGAGKSYTMMGTSIDDPDGRGVIPRIVEQIFTSILSSAANIEYTVRVSYMEIYMERIRDLLAPQNDNLPVHEEKNRGVYVKGLLEIYVSSVQEVYEVMRRGGNARAVAATNMNQESSRSHSIFVITITQKNVETGSAKSGQLFLVDLAGSEKVGKTGASGQTLEEAKKINKSLSALGMVINALTDGKSSHVPYRDSKLTRILQESLGGNSRTTLIINCSPSSYNDAETLSTLRFGMRAKSIKNKAKVNAELSPAELKQMLAKAKTQ | soluble
VMHSSLYTSVDDKLHGLSENPQAVIQLAINRATEEIKDLENARADASKVEIKPNVSSNTEVILFDKDFTQLLSGNRFLGLDKIKLEKKELGHIYQIQVFNSYGQEEIYRVILMETNISSVSTNIKYAAVLINTSQLEQASQKHEQ | not soluble
MGSDKIHHHHHHMIREVKFESQDRRIKQIIAALNENGIKDIEEANAICEAAGLDPYKTCEETQPICFENAKWAYVVGSAIALKKGCKNAAEAAEAIGIGLQAFCIPGSVADDRKVGIGHGNLAAMLLREETKCFAFLAGHESFAAAEGAIKIAAKADKVRKEPLRCILNGLGKDAAQIISRINGFTYVQTEFDYFTGELKVVREIAYSDGPRAKVKCYGADDVREGVAIMWKEGVDVSITGNSTNPTRFQHPVAGTYKKERVLAGKPYFSVASGGGTGRTLHPDNMAAGPASYGMTDTMGRMHSDAQFAGSSSVPAHVEMMGFLGIGNNPMVGCTVACAVDVATALSK | not soluble
MGSDKIHHHHHHMLSKMEINKLAMKESMTLLACPICGGEFSFSEPNSFICKNHHGFDIAKPGYLHLLKQVHKTKYDQALFESRKKVIASGFFEKLIERVTEIIAETKKEEVVIYDAGSGEGSHLARVVKNLQEKGRHVQAIGLDIAKEGVKQAARDYPGIVWTVADLANCPTQTETADVILNILSPSNYEEFKRLLKTDGFLLKVVPEANYLRELREFIYVDEKSSYSNESVTSRLAEKLTVEYVERVTYKAPIANELFADFLEMTPLGWHIDKDKKSELLINPPKELTVDLKIIIANRAHLL | not soluble
MKIAIIGAGIGGLTAGALLLEKGHDVSIFERQSNISEVGAGIGIGDNVIKKLGKHDLAKGIKNAGQNLSAMNVLDDKGNILSAVKLKEATLNVTLARQTLIELIQSYVNPQCIYTDHDVIKVENVEQHTMVHFSNHASQSFDLCIGSDGLHSVVRQAIHQNAKILYQGYTCFRGLVDDADLHNIDIASEYWGKRGRVGIVPLINNQAYWFITINASEKDPKYQTFEKPHLQAYFNNYPEPVRQILDKQSETGIQKHDLYDMKPLKSFVNQRILLLGDAAHATTPNMGQGAGQAMEDAIVLVNCLAEYDIEKALKRYDKLRVKHTAKVIKRSRKIGKIAQKDNKLVISLRNGVMKRTPNRLLSGQTKFLYKAKHKLEHHHHHH | not soluble
MEENMNIKQLKSKTMLGTVALVSAFSFASTNADANTYNYAVDVDYLASAEEIAQAHPASNTFPLGQCTWGVKEMATWAGNWWGNGGDWAASAASADYTVGTQPRVGSIVCWTDGSYGHVAYVTAVDPVTNKIQVLESNYAGHQWIDNYRGWFDPQNTVTPGVVSYIYPNLEHHHHHH | not soluble
MAHHHHHHMADLYDVLGILHDAEDDAIAKAYRRHSMAVNPQCNPDHPDPAALEKQFKHVSQAYVVLSNPKARGIYDLYGEEGVRHGGTGAQGIPGGIDLDAIDPYAVFRSFFGVDNPFQVIGEINGLRNNRHNFFSSTAVIPKSLVKAPSIEVQLPVTLEDVYYGAVRRASWKCSFVRQGNETVVEEFFELRVPKGAHAGDKFVVDGKGDWEEGRARGDVVVVLELLPHERFRREGDDLVVRVPITLREALCGVTLTVQTMEGTDVAVLIDEIVHPKYSRRVVGQGLPRNDEPSNPRGDLIVECDTTFPGFLTLEQKSELSRILDAK | not soluble
MAKEFLIELGTEELPPTQLRTLAEAFAANFEAELKGAELAHEGVKWFAAPRRLALKVAALAESQSDKVVEKRGPAVSAAFDAEGNPTKAAQGWARGCGITVDQADRMVTDKGEWLLFKQEVKGQPTSEIVVELAAKALANLPIAKPMRWGNKTTQFIRPVKTLTMLMGSDLIEGEILGVASSRTIRGHRFMGEKEFTIDSAEQYPAILEERGKVMADYEARKAIILADAQKAAAAVGGIADLEDDLVEEVTSLVEWPVVLTAKFEEEFLKVPSEALVYTMKGDQKYFPVYDENKKLLPNFIFVSNIESKEPRYVIEGNEKVVRPRLADAEFFFNTDRKRPLIDRLPELEQAIFQQQLGTIKDKTDRITELAGYIAEQIGADVEKSKRAGLLAKCDLMTSMVFEFTDTQGVMGMHYARHDGEAEEVAVALNEQYMPRFAGDELPSNGVSTAVAMADKLDTIVGIFGIGQAPKGSDPFALRRASLGVLRIIVEYGYNLDLVDLVAKAKSLFGDRLTNDNVEQDVIEFMLGRFRAWYQDEGFSVDIIQAVLARRPTK | not soluble
MEYPMSYTFRATFPALFLSLMLPCALPALAADPAPAKDAAAQAPVERAPLLSRSQEDAIALERQLPREDQQQLQAGDESFLALWKPANTDAPQGAVIILPGDAESPDWPDTVGPLRRKFPDVGWSSLSITLPDAQDNTLLPREPDAAAGDANAAKPEETPKDAAAKAPDPAAEAEALAAVATAKAAADEERNKAQAELIFARIESAISFAQQNKARNIVLLGHSSGAYWAARFLNERPSPAVQKLVMVAAREPVDAAPSLLAMVPGLKIKTADFIYKNPEDQAAKARLQASKRAKGPGFTQIGLINIVGNEETEQEQMFRRIRGWVEAKEEK | not soluble
MAHHHHHHMHRRTLRRLQQVVQNPPVGSANIPSPYATEGGHVPIWSIVNGFVQKRNWVFRNPEWCDLCKEPVALWVNHHGRKDHALMDMHYTQMVEFPRRWNPEEILAVFLEELGLSVEAYQKYYGGYEREHRNELYAMLVALEEAKMLHFGEPRDTYLYRMQGGLRGMDHQGALVLHRYILGPFMRIYPNGHIQDYSNLVDFVTCAYNMETVYDLCGFYTLDKVALKADYKPSSPAALGLGGIAVHSSATHGFAQQAMEKPQQSPQPQPQRHMTVGTGGRSAADMEEEAFSRKAVFVRQLLGQLRWLTLPDEEHPAGHMFPQHLMFLGEICLKSLVAEIVAARLCEYMVRVEPVWRDHGYERVKLDVDKIMRKENDILPEPVKFFYRPMSPKMDDLYSTNRGNLDEALEKAVVAPVSGKGA | soluble
MGSDKIHHHHHHMTTVLPLDPARYTPHLLHSAERMWPETNCYVDLWIEVLCVLGLPPEAMLGFTLTQDFEGDQFTFFKVPLEDLEALYGIRVTELAIFDRAEAHVAQQISRGRLCLVEMDSYFMPDTAGVGYRQHHGKTTVGVNRLDLAGRSMDYFHNGGFFRLEAEDFDGIWQLAAPETAPFLPYTEFAKFPETRPDETHLRAVAKRLFAFHFARRPQGNPFAGFAEVFPAQVEAIAERPFGYFHTYAFNTLRQFGANFELLASHLKWLAADDRYTNEIAEALRISELAKTVQFQLARAVTRKKFDPLKAALDPAIDAWDRLMTGLADKMA | not soluble
MGASKYDVKRLVDDYVNRLAKNGVLPDVIDKEPILPRVTLPESEITSQSYRKYPKKPKAIGKVGSTGGNRNGMGAIHPTLISYPEEQRKTNSRVKNNRSNYHIGNIGNIGGNIGNGQKMNRNKNGGRNQGGNHPDNMGIPMFPIARPTPYDLAEYIERGLNTGRSNHRTPQNFRRYPEHECDYYAGPCATSF | not soluble
MGHHHHHHSHMTDCEFGYIYRLAQDYLQCVLQIPQPGSGPSKTSRVLQNVAFSVQKEVEKNLKSCLDNVNVVSVDTARTLFNQVMEKEFEDGIINWGRIVTIFAFEGILIKKLLRQQIAPDVDTYKEISYFVAEFIMNNTGEWIRQNGGWENGFVKKFEPKSGWMTFLEVTGKICEMLSLLKQYC | not soluble
LMINDVPGLVTAWWDEELQALRIKWFTEYAEGSAVADAVEFAMTYVNENGVKNWLCDLSESQEALKAEDQEWVQTEFKRLIAESSLEKVVLIPPLPETGQDTEWLKDWEANTKRDYGGQIDARLLSEEGEIQRFFEKG | not soluble
MSEQTLEYFLNKGTIRRKDAADIEWYHAANSKSKLMEALRGSAQMIEADVLLRGADPEEPIMAHPPAKDSDITLQDWLKEVVKTDKGIKLDFKSLAAVSQSMSLLEEIRDQLKGPVWINADILPGPGGTATPVDPHVFLQEVAQRSENDVLSLGWTTGWTANVDNPGYSWEMVHQMEELCRPLKQPVTFPVRASLLPMSFPQFQWLLEQSDRSEILH | not soluble
VLDSFEILKALKSLDLLKNAPAWWWPNALKFEALLGAVLTQNTKFEAVLKSLENLKNAFILENDDEINLKKIAYIEFSKLAECVRPSGFYNQKAKRLIDLSGNILKDFQSFENFKQEVTREWLLDQKGIGKESADAILCYACAKEVMVVDKYSYLFLKKLGIEIEDYDELQHFFEKGVQENLNSALALYENTISLAQLYARFHGKIVEFSKQKLELKL | soluble
MAHHHHHHMSLKAKLDVYPVENYTQTSVDVSNGHAGVAGNKVNLGAGSAAPFRPPSAIEKLLSLKKRCEEEPCVHSVEGVLLVHLHRHPHILLMKQINSRTRDADGMRTVPPSNTNAEVTYRLPGGRCRRGEAEESCLLRKLGRHLLNEAKTPAGAAEVASTGNSDTVVDVGMTHTASKAGSCFRVGEVLATWYRPHFTPHMYPYVPAHIAAGSVREVRTIYLVHLEPTVYFTMVQESVELVAAPLFDLYENSSKYGPIVASLPVLLSRVLINYCSTEY | not soluble
LTPILGYGRVRAKVSADIDFTSYEQTQELFNPELSALRSEQTMQESRNASNEASGVPGTLSNTPQPNSSLGQKNNPQQNATPNNLPQQTSSDQMQAKDVRMQTTKNFELDKTISHTKNQPGTIKRLSVAVLVDNRPVMNDKTKKLEKKPLTKEEIEQIKLLVSDAIGLNVKRGDSLNVINSSF | not soluble
MSDNAQLTGLCDRFRGFYPVVIDVETAGFNAKTDALLEIAAITLKMDEQGWLMPDTTLHFHVEPFVGANLQPEALAFNGIDPNDPDRGAVSEYEALHEIFKVVRKGIKASGCNRAIMVAHNANFDHSFMMAAAERASLKRNPFHPFATFDTAALAGLALGQTVLSKACQTAGMDFDSTQAHSALYDTERTAVLFCEIVNRWKRLGGWPLPAAEEV | not soluble
MGNIANEAKLLKLDGKAYRNDFMLGNGKGHARDNLSRQRPGTSKRLSCSQLESLYSSNSMAKNIVDIPAEDLTRNGWSLKMQDDKVKALYESKLRQLKAKERLQQLFTYERLYGDGFVSIGTIEKREYSLSEPLDFENIKSVPYINAFSGKKISNRIIDEDVFSPNYGQIESFEVNNRSNNSRIHLLNNTTYSRATTIHRSRVLHQQNLRFEDELEGSSLLENLYDILTVADTSVWSVGQILYDFIFKVYKSADVRSLTPQDKLEIETKMDYQFRTEAIAIIDKEESLGKESSSVAGIGELLDFVWDYLAGAARMPKTVLKGQEGGTVTGAQYDVMNYYSRITAIQENQLRPHLEYLMRCLMWAEDECGGRLDPDSIEWSVEFNPLWNVDSKTDAEIRKLTAETDKIYIEAGVSDPDDVHEARFGRFGITETSKFNADSLSRDELDKMAAVVYENYKQDRDNEK | not soluble
